{
  "source": "patent US20230399384A1",
  "about": "(University of Texas, published 2023)",
  "key": {"[1]": {"target": "SARS-CoV-2 S protein on live SARS-CoV-2-mNG reporter virus (SARS-CoV-2, UniProt P0DTC2 14-1273)", "assay": "cell-based or functional assay"}, "[2]": {"target": "T1, sCoV2-RBD (Fc-tagged RBD of SARS-CoV-2 S protein) (SARS-CoV-2; human, UniProt P0DTC2 319-541)", "assay": "ELISA titration on coated sCoV2-RBD"}, "[3]": {"target": "T2, sCoV-RBD (Fc-tagged RBD of SARS-CoV S protein) (SARS-CoV; human, UniProt P59594 306-527)", "assay": "BLI (Octet) blocking of ACE2 binding to sCoV-RBD"}, "S protein of MERS-CoV": {"target": "T3, S protein of MERS-CoV (MERS-CoV, UniProt K9N5Q8 18-1296)", "T3 sequence": "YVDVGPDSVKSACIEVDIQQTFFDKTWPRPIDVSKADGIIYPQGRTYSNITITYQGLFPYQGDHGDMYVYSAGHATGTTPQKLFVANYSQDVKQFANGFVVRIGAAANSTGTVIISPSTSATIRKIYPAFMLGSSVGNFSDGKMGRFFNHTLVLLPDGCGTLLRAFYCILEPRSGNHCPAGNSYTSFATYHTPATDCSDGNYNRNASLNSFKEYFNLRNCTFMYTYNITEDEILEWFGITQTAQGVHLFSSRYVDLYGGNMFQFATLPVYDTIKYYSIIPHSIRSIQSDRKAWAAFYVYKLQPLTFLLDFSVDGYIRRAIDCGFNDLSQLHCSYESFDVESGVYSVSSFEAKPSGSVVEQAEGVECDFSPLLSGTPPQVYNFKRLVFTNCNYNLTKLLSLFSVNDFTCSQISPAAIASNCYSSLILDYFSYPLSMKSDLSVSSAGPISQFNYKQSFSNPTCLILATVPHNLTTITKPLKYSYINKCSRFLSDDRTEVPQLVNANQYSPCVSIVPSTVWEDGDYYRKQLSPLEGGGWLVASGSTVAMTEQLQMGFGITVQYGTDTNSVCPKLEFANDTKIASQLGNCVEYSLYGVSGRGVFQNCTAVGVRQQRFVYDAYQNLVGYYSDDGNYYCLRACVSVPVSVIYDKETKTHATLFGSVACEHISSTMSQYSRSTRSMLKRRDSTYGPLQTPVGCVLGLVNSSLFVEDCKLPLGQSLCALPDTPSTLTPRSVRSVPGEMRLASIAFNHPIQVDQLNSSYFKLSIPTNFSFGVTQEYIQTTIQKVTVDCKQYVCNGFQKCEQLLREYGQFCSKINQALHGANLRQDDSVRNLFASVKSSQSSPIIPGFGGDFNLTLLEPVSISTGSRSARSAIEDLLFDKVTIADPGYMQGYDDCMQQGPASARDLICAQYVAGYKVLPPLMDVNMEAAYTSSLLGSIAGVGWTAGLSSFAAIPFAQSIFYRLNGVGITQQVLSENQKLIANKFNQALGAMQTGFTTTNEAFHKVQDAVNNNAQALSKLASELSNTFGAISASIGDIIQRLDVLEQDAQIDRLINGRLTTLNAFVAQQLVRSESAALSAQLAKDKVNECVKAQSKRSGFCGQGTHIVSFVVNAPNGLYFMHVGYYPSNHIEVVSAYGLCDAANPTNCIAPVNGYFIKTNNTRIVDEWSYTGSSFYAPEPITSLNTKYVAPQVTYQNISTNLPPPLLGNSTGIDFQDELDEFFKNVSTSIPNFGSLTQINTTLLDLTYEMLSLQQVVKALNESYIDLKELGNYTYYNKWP", "assay": "BLI kinetic binding (FIG. 28D)"}, "[4]": {"target": "T1, sCoV2-RBD (Fc-tagged RBD of SARS-CoV-2 …)", "assay": "BLI (Octet) blocking of ACE2 binding to captured sCoV2-RBD"}, "[5]": {"target": "T1, sCoV2-RBD (Fc-tagged RBD of SARS-CoV-2 …)"}, "[6]": {"target": "T2, sCoV-RBD (Fc-tagged RBD of SARS-CoV S …)"}, "S protein of SARS-CoV": {"target": "S protein of SARS-CoV (SARS-CoV, UniProt P59594 14-1195)"}, "[7]": {"target": "trimeric prefusion S protein of SARS-CoV-2 (SARS-CoV-2, UniProt P0DTC2 14-1208)"}},
  "note": "Like-named read-outs stand apart in the source and are kept apart here.",
  "data": [
    {"binder": "CoV2-12 (antibody, V domains shown) VH: QVQLVESGGGVVQPGRSLRLSCVASGFTFSSYAMQWVRQAPGKGLEYVAVVSDDGNMKFYADSVKGRFTISRDNSRNTVSLQMNSLGVEDTAVYYCARENYFWSGSIGGLDYWGQGTLVSVSS VL: not shown", "values": [
      {"measurement": "NC50 (neutralisation of reporter SARS-CoV-2, Vero E6 cells)", "setting": "[1]", "value": 18.2, "unit": "µg/mL"},
      {"measurement": "EC50", "setting": "[2]", "value": 2.11, "unit": "nM"},
      {"measurement": "IC50", "setting": "[3]", "value": 1.71, "unit": "µg/mL"},
      {"measurement": "binding result", "setting": "S protein of MERS-CoV", "value": "no binding"},
      {"measurement": "IC50", "setting": "[4]", "value": 2.13, "unit": "µg/mL"},
      {"measurement": "EC50", "setting": "[5]", "value": 0.89, "unit": "nM"},
      {"measurement": "EC50", "setting": "[6]", "value": 3.51, "unit": "nM"},
      {"measurement": "Kd", "setting": "S protein of SARS-CoV", "value": 9.95, "unit": "nM"},
      {"measurement": "Kd", "setting": "[7]", "value": 10.7, "unit": "nM"}
    ]}
  ]
}
